Target: FGFR1c endogenously expressed by HEK293 cells transiently transfected with murine βKlotho (UniProt P11362)
Experiment: cell-based or functional assay

Chain of FGFR1c endogenously expressed by HEK293 cells transiently transfected with murine βKlotho (P11362 22-822): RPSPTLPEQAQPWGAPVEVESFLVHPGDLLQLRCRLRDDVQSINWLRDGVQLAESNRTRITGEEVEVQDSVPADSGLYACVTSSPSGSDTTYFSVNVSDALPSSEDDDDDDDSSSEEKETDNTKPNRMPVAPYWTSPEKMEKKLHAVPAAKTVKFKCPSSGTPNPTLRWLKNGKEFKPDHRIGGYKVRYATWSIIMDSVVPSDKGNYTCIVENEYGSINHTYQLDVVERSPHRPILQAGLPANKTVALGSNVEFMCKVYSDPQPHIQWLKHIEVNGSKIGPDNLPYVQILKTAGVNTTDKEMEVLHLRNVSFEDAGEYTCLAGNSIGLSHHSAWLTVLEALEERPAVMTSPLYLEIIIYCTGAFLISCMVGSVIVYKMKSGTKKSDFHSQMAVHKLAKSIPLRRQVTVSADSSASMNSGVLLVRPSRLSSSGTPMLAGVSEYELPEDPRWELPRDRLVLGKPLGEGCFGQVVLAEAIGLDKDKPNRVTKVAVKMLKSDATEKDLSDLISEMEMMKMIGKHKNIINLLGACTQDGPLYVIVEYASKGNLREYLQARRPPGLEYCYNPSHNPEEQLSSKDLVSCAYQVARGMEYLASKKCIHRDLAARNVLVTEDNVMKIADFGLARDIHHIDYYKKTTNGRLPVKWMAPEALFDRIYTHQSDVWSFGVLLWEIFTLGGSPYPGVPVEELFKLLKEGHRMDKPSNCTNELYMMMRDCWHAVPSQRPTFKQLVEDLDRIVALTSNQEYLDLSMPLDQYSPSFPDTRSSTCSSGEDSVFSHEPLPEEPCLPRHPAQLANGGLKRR

Induction of Egr1 protein expression (immunoblot, HEK293 cells co-expressing FGFR1c and βKlotho): 30 ng/mL
Substance: Q104M single mutant of human FGF21 (SEQ ID NO: 152) (from UniProt Q9NSA1 29-209) (ligand)

From patent US20130231277A1
